Test results taken from publication PMC7820984.

Biological target: T1, MBP-WRKY21 (Oryza sativa, UniProt Q5FZT4 1-280)
T1 sequence: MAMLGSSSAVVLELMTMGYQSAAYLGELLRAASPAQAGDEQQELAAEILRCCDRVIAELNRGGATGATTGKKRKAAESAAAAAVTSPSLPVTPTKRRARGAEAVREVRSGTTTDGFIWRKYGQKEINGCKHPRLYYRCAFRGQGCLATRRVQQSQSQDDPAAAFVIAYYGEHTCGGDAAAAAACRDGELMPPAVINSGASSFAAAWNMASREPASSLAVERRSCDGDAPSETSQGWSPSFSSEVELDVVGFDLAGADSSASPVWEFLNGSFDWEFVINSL
Experiment: EMSA

B1: F2 (Wz and Wy W-boxes) (dsDNA)
DNA 1: TTTTAATAGATGACGCCGTTGACTTTTTCTTACATATTTGACCATTCGTCTTATCCAAAA
DNA 2: TTTTGGATAAGACGAATGGTCAAATATGTAAGAAAAAGTCAACGGCGTCATCTATTAAAA
binding result: binds

B2: F2-m (Wz and Wy mutated) (dsDNA)
DNA 1: TTTTAATAGATGACGCCGTTGAATTTTTCTTACATATTTGAACATTCGTCTTATCCAAAA
DNA 2: TTTTGGATAAGACGAATGTTCAAATATGTAAGAAAAATTCAACGGCGTCATCTATTAAAA
binding result: no binding
